Reference: the RNAGym collection of RNA variant scans (doi:10.1021/acssynbio.7b00057)

B1: Pistol ribozyme (parent)
chain: GGGUCGUUGUUCCAUAAUCGCGUGGAUAUGGCACGCAAGUUUCUACCGGGCACCGUAAAUGUCCGACUGGAGCCGUUCGGGCGGCUAUAAACAGACCUCAGGCCCGAAGCGUGGCGGCACCUGCCGCCGGUGGUAAAAAAGAUCGGAAGAGCACACGUCU

Variants of: B1
Assay: aptazyme ON/OFF ratio, guanine; higher = stronger switching; co-transcriptional cleavage with and without guanine

Point of comparison: U7G U8C U10C U11A C13A, “aptazyme ON/OFF ratio” value 1.18. Against it:
- U7G U8C U10C U11G — higher, 1.27
- U7G U8C U10C U11C — lower, 1.14
- U7G U8C U10C U11A — higher, 2.21
- U7G U8C U10G U11C C12G C13U — higher, 1.36
- U7G U8C U10G U11C C12G C13A — higher, 1.28
- U7G U8C U10G U11C C12G C13G — the same, 1.18
- U7G U8C G9U U11G C12A C13U — higher, 1.38
- U7G U8C G9U U11G C12A C13G — higher, 1.35
- U7G U8C G9U U11G C12A C13A — lower, 1.11
- U7G U8C G9U U10G U11G C13G — lower, 1.17
- U7G U8C G9U U10G U11G C13A — higher, 1.22
- U7G U8C G9U U10G U11G C13U — higher, 1.36
- U7G U8C G9U U11G C12A — higher, 1.44
- U7G U8C G9U U11G C12U — higher, 1.55
- U7G U8C G9U U11G C12G — higher, 1.34
- U7G U8C G9U U11A C12U C13U — higher, 1.41
- U7G U8C G9U U11A C12U C13A — higher, 1.46
- U7G U8C G9U U11A C12U C13G — lower, 1.17
- U7G U8C U10G U11A C13A — lower, 1.16
- U7G U8C U10G U11A C13G — lower, 1.13
- U7G U8C U10G U11A C13U — higher, 1.19
- U7G U8C U10C U11C C13A — lower, 1.04
- U7G U8C U10C U11C C13G — lower, 1.04
- U7G U8C U10C U11C C13U — lower, 1.07
- U7G U8C U11G C12U C13G — lower, 1.08
- U7G U8C U11G C12U C13U — higher, 1.22
- U7G U8C U11G C12U C13A — lower, 1.14
- U7G U8C U10G U11A C12U C13A — lower, 1.13
- U7G U8C U10G U11A C12U C13U — lower, 1.17
- U7G U8C U10G U11A C12U C13G — lower, 1.15
- U7G U8C U10G U11C C12G — higher, 2.08
- U7G U8C U10G U11C C12U — higher, 1.34
- U7G U8C U10G U11C C12A — higher, 1.57
- U7G U8C U10C U11G C13G — higher, 1.26
- U7G U8C U10C U11G C13A — higher, 1.23
- U7G U8C U10C U11G C13U — higher, 1.38
- U7G U8C U11A C12G C13U — lower, 1.12
- U7G U8C U11A C12G C13G — lower, 1.07
- U7G U8C U11A C12G C13A — lower, 1.09
- U7G U8G C12G C13A — higher, 1.4
- U7G U8G C12G C13G — higher, 1.36
- U7G U8G C12G C13U — higher, 1.37
- U7G U8C U11A C12U C13A — higher, 1.2
- U7G U8C U11A C12U C13G — lower, 1.14
- U7G U8C U11A C12U C13U — higher, 1.21
- U7G U8C U10A U11C C12U C13U — lower, 1.07
- U7G U8C U10A U11C C12U C13G — lower, 1.12
- U7G U8C U10A U11C C12U C13A — lower, 1.13
- U7G U8C G9U U11C C12A C13A — higher, 1.36
- U7G U8C G9U U11C C12A C13U — higher, 1.23
- U7G U8C G9U U11C C12A C13G — higher, 1.32
- U7G U8C U10G U11A C12A C13U — lower, 1.12
- U7G U8C U10G U11A C12A C13A — lower, 1.11
- U7G U8C U10G U11A C12A C13G — lower, 1.1
- U7G U8C U10G U11A C12G C13G — higher, 1.21
- U7G U8C U10G U11A C12G C13A — lower, 1.09
- U7G U8C U10G U11A C12G C13U — higher, 1.23
- U7G U8C U10G C13U — higher, 1.24
- U7G U8C U10G C13A — higher, 1.24
- U7G U8C U10G C13G — higher, 1.22
- U7G U8C U10G C12G C13A — lower, 1.12
- U7G U8C U10G C12G C13U — lower, 1.08
- U7G U8C U10G C12G C13G — lower, 1.13
- U7G U8G C13G — higher, 1.42
- U7G U8G C13A — higher, 1.4
- U7G U8G C13U — higher, 1.7
- U7G U8C G9U U10G U11G — higher, 1.55
- U7G U8C G9U U10G U11G C12G C13U — higher, 1.25
- U7G U8C G9U U10G U11G C12G C13G — higher, 1.23
- U7G U8C G9U U10G U11G C12G C13A — lower, 1.11
- U7G U8C U10A U11C C13G — lower, 1.04
- U7G U8C U10A U11C C13A — lower, 1.05
- U7G U8C U10A U11C C13U — lower, 1.04
- U7G U8C U10C U11C C12U C13A — lower, 1.08
- U7G U8C U10C U11C C12U C13U — lower, 1.11
- U7G U8C U10C U11C C12U C13G — lower, 1.12
- U7G U8C U11G C12G C13A — lower, 1.11
- U7G U8C U11G C12G C13U — lower, 1.12
- U7G U8C U11G C12G C13G — lower, 1.11
- U7G U8C U10A — higher, 1.33
- U7G U8C U10C — higher, 2.63
- U7G U8C U10G — higher, 1.31
- U7G U8C U11A C12A — higher, 1.37
- U7G U8C U11A C12G — lower, 1.12
- U7G U8C U11A C12U — higher, 1.31
- U7G U8G C12U C13G — higher, 1.39
- U7G U8G C12U C13A — higher, 1.31
- U7G U8G C12U C13U — higher, 1.5
- U7G U8C U11C C12G — higher, 1.38
- U7G U8C U11C C12A — higher, 1.69
- U7G U8C U11C C12U — higher, 1.57
- U7G U8C U10G U11C C12A C13A — higher, 1.38
- U7G U8C U10G U11C C12A C13G — lower, 1.17
- U7G U8C U10G U11C C12A C13U — higher, 1.33
- U7G U8C U10A U11G C12U — higher, 1.22
- U7G U8C U10A U11G C12G — higher, 1.19
- U7G U8C U10A U11G C12A — lower, 1.1
- U7G U8C U10A C13A — lower, 1.11
- U7G U8C U10A C13G — lower, 1.08
- U7G U8C U10A C13U — lower, 1.12
- U7G U8G G9A — higher, 3.82
- U7G U8C U10C U11G C12G C13G — lower, 1.08
- U7G U8C U10C U11G C12G C13A — lower, 1.13
- U7G U8C U10C U11G C12G C13U — lower, 1.07
- U7G U8C U10G U11C C13A — higher, 1.33
- U7G U8C U10G U11C C13U — higher, 1.4
- U7G U8C U10G U11C C13G — higher, 1.19
- U7G U8C U11G C12G — higher, 1.22
- U7G U8C U11G C12U — higher, 1.28
- U7G U8C U11G C12A — lower, 1.14
- U7G U8C U10A U11A C12U — higher, 1.43
- U7G U8C U10A U11A C12A — lower, 1.05
- U7G U8C U10A U11A C12G — lower, 1.13
- U7G U8C U11G C13G — higher, 1.2
- U7G U8C U11G C13U — lower, 1.17
- U7G U8C U11G C13A — higher, 1.29
- U7G U8C G9U U11A C13A — higher, 1.22
- U7G U8C G9U U11A C13G — lower, 1.02
- U7G U8C G9U U11A C13U — higher, 1.56
- U7G U8C U10C C12U C13U — higher, 1.27
- U7G U8C U10C C12U C13G — higher, 1.19
- U7G U8C U10C C12U C13A — lower, 1.15
- U7G U8C U10C U11A C13G — lower, 1.07
- U7G U8C U10C U11A C13U — higher, 1.35
- U7G U8C U10A C12G C13G — lower, 1.15
- U7G U8C U10A C12G C13U — higher, 1.32
- U7G U8C U10A C12G C13A — higher, 1.22
- U7G U8G C12G — higher, 1.38
- U7G U8G C12A — higher, 1.25
- U7G U8G C12U — higher, 1.21
- U7G U8C U10G C12A C13U — higher, 1.2
- U7G U8C U10G C12A C13G — lower, 1.12
- U7G U8C U10G C12A C13A — lower, 1.12
- U7G U8C U11C C12U C13U — higher, 1.45
- U7G U8C U11C C12U C13G — higher, 1.3
- U7G U8C U11C C12U C13A — higher, 1.34
- U7G U8C U10C C13U — higher, 1.64
- U7G U8C U10C C13A — lower, 1.07
- U7G U8C U10C C13G — lower, 1.07
- U7G U8C U10G U11G C12U C13U — higher, 1.34
- U7G U8C U10G U11G C12U C13A — higher, 1.26
- U7G U8C U10G U11G C12U C13G — higher, 1.29
- U7G U8C G9U U11C C12A — higher, 1.31
- U7G U8C G9U U11C C12G — higher, 1.37
- U7G U8C G9U U11C C12U — higher, 2.13
- U7G U8C U10A U11C C12A C13A — lower, 1.13
- U7G U8C U10A U11C C12A C13U — higher, 1.27
- U7G U8C U10A U11C C12A C13G — higher, 1.23
- U7G U8C U10G C12U C13U — higher, 1.36
- U7G U8C U10G C12U C13A — higher, 1.34
- U7G U8C U10G C12U C13G — higher, 1.22
- U7G U8C G9U U10G U11G C12A — higher, 1.31
- U7G U8C G9U U10G U11G C12G — higher, 1.31
- U7G U8C G9U U10G U11G C12U — higher, 1.35
- U7G U8C U10G U11G C12U — higher, 1.43
- U7G U8C U10G U11G C12A — the same, 1.18
- U7G U8C U10G U11G C12G — higher, 1.22
- U7G U8C U11G C12A C13A — lower, 1.13
- U7G U8C U11G C12A C13U — higher, 1.19
- U7G U8C U11G C12A C13G — lower, 1.15
- U7G U8C U10C U11G C12A C13A — lower, 1.16
- U7G U8C U10C U11G C12A C13U — higher, 1.29
- U7G U8C U10C U11G C12A C13G — higher, 1.22
- U7G U8C G9U U11G C12U C13U — higher, 1.35
- U7G U8C G9U U11G C12U C13A — higher, 1.26
- U7G U8C G9U U11G C12U C13G — higher, 1.28
